Source: patent US20160272683A1 (Novo Nordisk, published 2016)
Numbered stars: 1 amine (or outer) side, 2 acyl side, 3 side chain; on linkers, the order of the positions; unused ones are H or OH. * marks the point of attachment. C20 diacid = O=C(O)CCCCCCCCCCCCCCCCCCC(=O)*; C18 diacid = O=C(O)CCCCCCCCCCCCCCCCC(=O)*; γGlu = O=C(O)[C@H](CCC(=O)[*:2])N[*:1]

T1: human amylin 3(a) receptor (human calcitonin receptor co-expressed with RAMP-3) (human, UniProt P30988 25-474; O60896 24-148, limits assumed)
T1 sequence (looked up) 1: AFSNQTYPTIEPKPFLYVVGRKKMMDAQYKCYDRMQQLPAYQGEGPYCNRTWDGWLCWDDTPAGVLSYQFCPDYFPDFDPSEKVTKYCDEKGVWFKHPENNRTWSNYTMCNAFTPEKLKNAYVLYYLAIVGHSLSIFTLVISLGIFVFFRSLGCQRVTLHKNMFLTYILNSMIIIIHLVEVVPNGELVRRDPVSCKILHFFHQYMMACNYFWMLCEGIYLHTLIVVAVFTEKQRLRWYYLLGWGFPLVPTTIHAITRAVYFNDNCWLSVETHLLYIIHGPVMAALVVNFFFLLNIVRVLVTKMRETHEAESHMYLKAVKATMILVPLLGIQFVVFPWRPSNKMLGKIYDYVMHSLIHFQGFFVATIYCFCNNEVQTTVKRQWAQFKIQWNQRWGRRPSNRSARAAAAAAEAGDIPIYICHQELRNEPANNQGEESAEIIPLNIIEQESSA
T1 sequence (looked up) 2: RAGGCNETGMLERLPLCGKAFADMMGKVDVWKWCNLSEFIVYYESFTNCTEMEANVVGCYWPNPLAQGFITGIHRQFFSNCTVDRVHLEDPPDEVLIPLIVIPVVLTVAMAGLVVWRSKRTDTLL

T2: human calcitonin receptor (human, UniProt P30988 25-474)
T2 sequence (looked up): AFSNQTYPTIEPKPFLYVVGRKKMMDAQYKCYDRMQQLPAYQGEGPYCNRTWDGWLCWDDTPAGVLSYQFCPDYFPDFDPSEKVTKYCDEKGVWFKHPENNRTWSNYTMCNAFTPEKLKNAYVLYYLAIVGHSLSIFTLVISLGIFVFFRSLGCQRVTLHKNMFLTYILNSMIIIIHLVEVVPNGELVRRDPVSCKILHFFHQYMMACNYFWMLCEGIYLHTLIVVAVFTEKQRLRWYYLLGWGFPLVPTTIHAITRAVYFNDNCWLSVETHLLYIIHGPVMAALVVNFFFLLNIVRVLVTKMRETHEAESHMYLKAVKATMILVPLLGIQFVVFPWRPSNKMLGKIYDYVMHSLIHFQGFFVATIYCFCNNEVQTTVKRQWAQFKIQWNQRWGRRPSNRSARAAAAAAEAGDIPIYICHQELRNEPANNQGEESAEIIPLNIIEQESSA


Assays:
[1] = molecular target: T1, human amylin 3(a) receptor (human …); assay: cell-based or functional assay
[2] = molecular target: T2, human calcitonin receptor; assay: cell-based or functional assay

| hAmylin-R funct. EC50 (pM) [1] [pM] | hCTR funct. EC50 (pM) [2] [pM] | Binder |
| --- | --- | --- |
| 10 | 14 | {C18 diacid-γGlu}-ASELSTAVLGRLSAELHELATLPRTETGSGSP-NH2 (SMILES CC(C)C[C@H](NC(=O)[C@H](CCC(=O)O)NC(=O)[C@H](Cc1c[nH]cn1)NC(=O)[C@H](CC(C)C)NC(=O)[C@H](CCC(=O)O)NC(=O)[C@H](C)NC(=O)[C@H](CO)NC(=O)[C@H](CC(C)C)NC(=O)[C@H](CCCNC(=N)N)NC(=O)CNC(=O)[C@H](CC(C)C)NC(=O)[C@@H](NC(=O)[C@H](C)NC(=O)[C@@H](NC(=O)[C@H](CO)NC(=O)[C@H](CC(C)C)NC(=O)[C@H](CCC(=O)O)NC(=O)[C@H](CO)NC(=O)[C@H](C)NC(=O)CC[C@H](NC(=O)CCCCCCCCCCCCCCCCC(=O)O)C(=O)O)[C@@H](C)O)C(C)C)C(=O)N[C@@H](C)C(=O)N[C@H](C(=O)N[C@@H](CC(C)C)C(=O)N1CCC[C@H]1C(=O)N[C@@H](CCCNC(=N)N)C(=O)N[C@H](C(=O)N[C@@H](CCC(=O)O)C(=O)N[C@H](C(=O)NCC(=O)N[C@@H](CO)C(=O)NCC(=O)N[C@@H](CO)C(=O)N1CCC[C@H]1C(N)=O)[C@@H](C)O)[C@@H](C)O)[C@@H](C)O) [[N-terminal(C18 diacid-gGlu), des1, 9V, 30S, 31G]mimylin] |
| 10 | 6 | {C18 diacid}-EASEISTAIIGRLSAELHEIATLPRTETGPESP-NH2 (SMILES CC[C@H](C)[C@H](NC(=O)[C@H](C)NC(=O)[C@@H](NC(=O)[C@H](CO)NC(=O)[C@@H](NC(=O)[C@H](CCC(=O)O)NC(=O)[C@H](CO)NC(=O)[C@H](C)NC(=O)[C@H](CCC(=O)O)NC(=O)CCCCCCCCCCCCCCCCC(=O)O)[C@@H](C)CC)[C@@H](C)O)C(=O)N[C@H](C(=O)NCC(=O)N[C@@H](CCCNC(=N)N)C(=O)N[C@@H](CC(C)C)C(=O)N[C@@H](CO)C(=O)N[C@@H](C)C(=O)N[C@@H](CCC(=O)O)C(=O)N[C@@H](CC(C)C)C(=O)N[C@@H](Cc1c[nH]cn1)C(=O)N[C@@H](CCC(=O)O)C(=O)N[C@H](C(=O)N[C@@H](C)C(=O)N[C@H](C(=O)N[C@@H](CC(C)C)C(=O)N1CCC[C@H]1C(=O)N[C@@H](CCCNC(=N)N)C(=O)N[C@H](C(=O)N[C@@H](CCC(=O)O)C(=O)N[C@H](C(=O)NCC(=O)N1CCC[C@H]1C(=O)N[C@@H](CCC(=O)O)C(=O)N[C@@H](CO)C(=O)N1CCC[C@H]1C(N)=O)[C@@H](C)O)[C@@H](C)O)[C@@H](C)O)[C@@H](C)CC)[C@@H](C)CC) [[N-terminal(C18 diacid), 5I, 9I, 10I, 20I]mimylin] |
| 9 | 11 | {C18 diacid-γGlu}-ASQLSTAALGRLSAELHELATLPRTETGSGSP-NH2 (SMILES CC(C)C[C@H](NC(=O)[C@H](C)NC(=O)[C@H](C)NC(=O)[C@@H](NC(=O)[C@H](CO)NC(=O)[C@H](CC(C)C)NC(=O)[C@H](CCC(N)=O)NC(=O)[C@H](CO)NC(=O)[C@H](C)NC(=O)CC[C@H](NC(=O)CCCCCCCCCCCCCCCCC(=O)O)C(=O)O)[C@@H](C)O)C(=O)NCC(=O)N[C@@H](CCCNC(=N)N)C(=O)N[C@@H](CC(C)C)C(=O)N[C@@H](CO)C(=O)N[C@@H](C)C(=O)N[C@@H](CCC(=O)O)C(=O)N[C@@H](CC(C)C)C(=O)N[C@@H](Cc1c[nH]cn1)C(=O)N[C@@H](CCC(=O)O)C(=O)N[C@@H](CC(C)C)C(=O)N[C@@H](C)C(=O)N[C@H](C(=O)N[C@@H](CC(C)C)C(=O)N1CCC[C@H]1C(=O)N[C@@H](CCCNC(=N)N)C(=O)N[C@H](C(=O)N[C@@H](CCC(=O)O)C(=O)N[C@H](C(=O)NCC(=O)N[C@@H](CO)C(=O)NCC(=O)N[C@@H](CO)C(=O)N1CCC[C@H]1C(N)=O)[C@@H](C)O)[C@@H](C)O)[C@@H](C)O) [[N-terminal(C18 diacid-gGlu), des1, 4Q, 30S, 31G]mimylin] |
| 38 | 42 | {C20 diacid-γGlu}-ASGLSTAALGRLSAELHELATYPRTETGSGSP-NH2 [[N-terminal(C20 diacid-gGlu), des1, 4G, 23Y, 30S, 31G]mimylin] |
| 32 | 29 | {C20 diacid-γGlu}-ASELSTAALGRLSAELHELATYPRTETGSGSY-NH2 (SMILES CC(C)C[C@H](NC(=O)[C@H](C)NC(=O)[C@H](C)NC(=O)[C@@H](NC(=O)[C@H](CO)NC(=O)[C@H](CC(C)C)NC(=O)[C@H](CCC(=O)O)NC(=O)[C@H](CO)NC(=O)[C@H](C)NC(=O)CC[C@H](NC(=O)CCCCCCCCCCCCCCCCCCC(=O)O)C(=O)O)[C@@H](C)O)C(=O)NCC(=O)N[C@@H](CCCNC(=N)N)C(=O)N[C@@H](CC(C)C)C(=O)N[C@@H](CO)C(=O)N[C@@H](C)C(=O)N[C@@H](CCC(=O)O)C(=O)N[C@@H](CC(C)C)C(=O)N[C@@H](Cc1c[nH]cn1)C(=O)N[C@@H](CCC(=O)O)C(=O)N[C@@H](CC(C)C)C(=O)N[C@@H](C)C(=O)N[C@H](C(=O)N[C@@H](Cc1ccc(O)cc1)C(=O)N1CCC[C@H]1C(=O)N[C@@H](CCCNC(=N)N)C(=O)N[C@H](C(=O)N[C@@H](CCC(=O)O)C(=O)N[C@H](C(=O)NCC(=O)N[C@@H](CO)C(=O)NCC(=O)N[C@@H](CO)C(=O)N[C@@H](Cc1ccc(O)cc1)C(N)=O)[C@@H](C)O)[C@@H](C)O)[C@@H](C)O) [[N-terminal(C20 diacid-gGlu), des1, 23Y, 30S, 31G, 33Y]mimylin] |
| 37 | 41 | {C20 diacid-γGlu}-ASELSTAALGRLSAELHELATYPRTETGSGAP-NH2 (SMILES CC(C)C[C@H](NC(=O)[C@H](C)NC(=O)[C@H](C)NC(=O)[C@@H](NC(=O)[C@H](CO)NC(=O)[C@H](CC(C)C)NC(=O)[C@H](CCC(=O)O)NC(=O)[C@H](CO)NC(=O)[C@H](C)NC(=O)CC[C@H](NC(=O)CCCCCCCCCCCCCCCCCCC(=O)O)C(=O)O)[C@@H](C)O)C(=O)NCC(=O)N[C@@H](CCCNC(=N)N)C(=O)N[C@@H](CC(C)C)C(=O)N[C@@H](CO)C(=O)N[C@@H](C)C(=O)N[C@@H](CCC(=O)O)C(=O)N[C@@H](CC(C)C)C(=O)N[C@@H](Cc1c[nH]cn1)C(=O)N[C@@H](CCC(=O)O)C(=O)N[C@@H](CC(C)C)C(=O)N[C@@H](C)C(=O)N[C@H](C(=O)N[C@@H](Cc1ccc(O)cc1)C(=O)N1CCC[C@H]1C(=O)N[C@@H](CCCNC(=N)N)C(=O)N[C@H](C(=O)N[C@@H](CCC(=O)O)C(=O)N[C@H](C(=O)NCC(=O)N[C@@H](CO)C(=O)NCC(=O)N[C@@H](C)C(=O)N1CCC[C@H]1C(N)=O)[C@@H](C)O)[C@@H](C)O)[C@@H](C)O) [[N-terminal(C20 diacid-gGlu), des1, 23Y, 30S, 31G, 32A]mimylin] |
| 33 | 27 | {C20 diacid-γGlu}-ASELSTAALGRLSAELHELSTYPRTETGSGSP-NH2 (SMILES CC(C)C[C@H](NC(=O)[C@H](C)NC(=O)[C@H](C)NC(=O)[C@@H](NC(=O)[C@H](CO)NC(=O)[C@H](CC(C)C)NC(=O)[C@H](CCC(=O)O)NC(=O)[C@H](CO)NC(=O)[C@H](C)NC(=O)CC[C@H](NC(=O)CCCCCCCCCCCCCCCCCCC(=O)O)C(=O)O)[C@@H](C)O)C(=O)NCC(=O)N[C@@H](CCCNC(=N)N)C(=O)N[C@@H](CC(C)C)C(=O)N[C@@H](CO)C(=O)N[C@@H](C)C(=O)N[C@@H](CCC(=O)O)C(=O)N[C@@H](CC(C)C)C(=O)N[C@@H](Cc1c[nH]cn1)C(=O)N[C@@H](CCC(=O)O)C(=O)N[C@@H](CC(C)C)C(=O)N[C@@H](CO)C(=O)N[C@H](C(=O)N[C@@H](Cc1ccc(O)cc1)C(=O)N1CCC[C@H]1C(=O)N[C@@H](CCCNC(=N)N)C(=O)N[C@H](C(=O)N[C@@H](CCC(=O)O)C(=O)N[C@H](C(=O)NCC(=O)N[C@@H](CO)C(=O)NCC(=O)N[C@@H](CO)C(=O)N1CCC[C@H]1C(N)=O)[C@@H](C)O)[C@@H](C)O)[C@@H](C)O) [[N-terminal(C20 diacid-gGlu), des1, 21S, 23Y, 30S, 31G]mimylin] |
| 17 | 15 | {C20 diacid-γGlu}-EAASELSTAALGRLSAELHELATYPRTETGSGSP-NH2 (SMILES CC(C)C[C@H](NC(=O)[C@H](C)NC(=O)[C@H](C)NC(=O)[C@@H](NC(=O)[C@H](CO)NC(=O)[C@H](CC(C)C)NC(=O)[C@H](CCC(=O)O)NC(=O)[C@H](CO)NC(=O)[C@H](C)NC(=O)[C@H](C)NC(=O)[C@H](CCC(=O)O)NC(=O)CC[C@H](NC(=O)CCCCCCCCCCCCCCCCCCC(=O)O)C(=O)O)[C@@H](C)O)C(=O)NCC(=O)N[C@@H](CCCNC(=N)N)C(=O)N[C@@H](CC(C)C)C(=O)N[C@@H](CO)C(=O)N[C@@H](C)C(=O)N[C@@H](CCC(=O)O)C(=O)N[C@@H](CC(C)C)C(=O)N[C@@H](Cc1c[nH]cn1)C(=O)N[C@@H](CCC(=O)O)C(=O)N[C@@H](CC(C)C)C(=O)N[C@@H](C)C(=O)N[C@H](C(=O)N[C@@H](Cc1ccc(O)cc1)C(=O)N1CCC[C@H]1C(=O)N[C@@H](CCCNC(=N)N)C(=O)N[C@H](C(=O)N[C@@H](CCC(=O)O)C(=O)N[C@H](C(=O)NCC(=O)N[C@@H](CO)C(=O)NCC(=O)N[C@@H](CO)C(=O)N1CCC[C@H]1C(N)=O)[C@@H](C)O)[C@@H](C)O)[C@@H](C)O) [[N-terminal(C20 diacid-gGlu), -1E, 1A, 23Y, 30S, 31G]mimylin] |
